The values that follow come from article doi:10.1101/2025.05.22.655678.

Substitutions are numbered along the chain they refer to. Names may count otherwise.

The labels stand for the following.
B1: 60bp-7-V (dsDNA)
DNA 1: CGGCGATTTATGCCGCCTCGTTTTTCACATGGAACGGGTTGGCATGGATTGTAGGCGCCG
DNA 2: CGGCGCCTACAATCCATGCCAACCCGTTCCATGTGAAAAACGAGGCGGCATAAATCGCCG
modifications: N6-methyladenine in any context (M.EcoGII)
B2: 60bp-2-V (dsDNA)
DNA 1: GGGCTACGTCTTGCTGGCGTTCGCGACTTTTTGCTGGATGGCCTTCCCCATTATGATTCT
DNA 2: AGAATCATAATGGGGAAGGCCATCCAGCAAAAAGTCGCGAACGCCAGCAAGACGTAGCCC
modifications: N6-methyladenine in any context (M.EcoGII)
B3: GAGAG (dsDNA)
DNA 1: B2 DNA 1 with T28G, T29A, T30G, T31A, T32G
DNA 2: B2 DNA 2 with A29C, A30T, A31C, A32T, A33C
modifications: N6-methyladenine in any context (M.EcoGII)
B4: GCGAC (dsDNA)
DNA 1: B2 DNA 1 with T28G, T29C, T30G, T31A, T32C
DNA 2: B2 DNA 2 with A29G, A30T, A31C, A32G, A33C
modifications: N6-methyladenine in any context (M.EcoGII)
B5: GGGAG (dsDNA)
DNA 1: B2 DNA 1 with T28G, T29G, T30G, T31A, T32G
DNA 2: B2 DNA 2 with A29C, A30T, A31C, A32C, A33C
modifications: N6-methyladenine in any context (M.EcoGII)
B6: GCAAG (dsDNA)
DNA 1: B2 DNA 1 with T28G, T29C, T30A, T31A, T32G
DNA 2: B2 DNA 2 with A29C, A30T, A31T, A32G, A33C
modifications: N6-methyladenine in any context (M.EcoGII)
B7: GCGAA (dsDNA)
DNA 1: B2 DNA 1 with T28G, T29C, T30G, T31A, T32A
DNA 2: B2 DNA 2 with A29T, A30T, A31C, A32G, A33C
modifications: N6-methyladenine in any context (M.EcoGII)
B8: GTGAG (dsDNA)
DNA 1: B2 DNA 1 with T28G, T30G, T31A, T32G
DNA 2: B2 DNA 2 with A29C, A30T, A31C, A33C
modifications: N6-methyladenine in any context (M.EcoGII)
B9: GCCAG (dsDNA)
DNA 1: B2 DNA 1 with T28G, T29C, T30C, T31A, T32G
DNA 2: B2 DNA 2 with A29C, A30T, A31G, A32G, A33C
modifications: N6-methyladenine in any context (M.EcoGII)
B10: TCGAG (dsDNA)
DNA 1: B2 DNA 1 with T29C, T30G, T31A, T32G
DNA 2: B2 DNA 2 with A29C, A30T, A31C, A32G
modifications: N6-methyladenine in any context (M.EcoGII)
B11: CCGAG (dsDNA)
DNA 1: B2 DNA 1 with T28C, T29C, T30G, T31A, T32G
DNA 2: B2 DNA 2 with A29C, A30T, A31C, A32G, A33G
modifications: N6-methyladenine in any context (M.EcoGII)
B12: GCGAT (dsDNA)
DNA 1: B2 DNA 1 with T28G, T29C, T30G, T31A
DNA 2: B2 DNA 2 with A30T, A31C, A32G, A33C
modifications: N6-methyladenine in any context (M.EcoGII)
B13: GCTAG (dsDNA)
DNA 1: B2 DNA 1 with T28G, T29C, T31A, T32G
DNA 2: B2 DNA 2 with A29C, A30T, A32G, A33C
modifications: N6-methyladenine in any context (M.EcoGII)
B14: 59bp-GAG (dsDNA)
DNA 1: TTTTTTTTTTTTTTTTTTTTTTTTTTTTGAGTTTTTTTTTTTTTTTTTTTTTTTTTTTT
DNA 2: AAAAAAAAAAAAAAAAAAAAAAAAAAAACTCAAAAAAAAAAAAAAAAAAAAAAAAAAAA
modifications: N6-methyladenine at A of GAG (position 30, printed M6A); legend says M.EcoGII-methylated
B15: ss-59nt-GAG (ssDNA)
DNA: B14 DNA 1
modifications: N6-methyladenine at A of GAG (position 30)
B16: 60bp-1 (dsDNA)
DNA 1: AGAAGCAGGCCATTATCGCCGGCATGGCGGCCGACGCGCTGGGCTACGTCTTGCTGGCGT
DNA 2: ACGCCAGCAAGACGTAGCCCAGCGCGTCGGCCGCCATGCCGGCGATAATGGCCTGCTTCT
modifications: N6-methyladenine in any context (M.EcoGII)
B17: 60bp-4 (dsDNA)
DNA 1: GGATGCCCGCGTTGCAGGCCATGCTGTCCAGGCAGGTAGATGACGACCATCAGGGACAGC
DNA 2: GCTGTCCCTGATGGTCGTCATCTACCTGCCTGGACAGCATGGCCTGCAACGCGGGCATCC
modifications: N6-methyladenine in any context (M.EcoGII)
B18: 60bp-7 (dsDNA)
DNA 1: B1 DNA 1 with T21G, T22C, T23G, T24A, T25G
DNA 2: B1 DNA 2 with A36C, A37T, A38C, A39G, A40C
modifications: N6-methyladenine in any context (M.EcoGII)
B19: 60bp-2 (dsDNA)
DNA 1: B2 DNA 1 with T28G, T29C, T30G, T31A, T32G
DNA 2: B2 DNA 2 with A29C, A30T, A31C, A32G, A33C
modifications: N6-methyladenine in any context (M.EcoGII)
B20: 60bp-5 (dsDNA)
DNA 1: TGACGACCATCAGGGACAGCTTCAAGGATCGCTCGCGGCTCTTACCAGCCTAACTTCGAT
DNA 2: ATCGAAGTTAGGCTGGTAAGAGCCGCGAGCGATCCTTGAAGCTGTCCCTGATGGTCGTCA
modifications: N6-methyladenine in any context (M.EcoGII)
B21: 60bp-3 (dsDNA)
DNA 1: GCCTTCCCCATTATGATTCTTCTCGCTTCCGGCGGCATCGGGATGCCCGCGTTGCAGGCC
DNA 2: GGCCTGCAACGCGGGCATCCCGATGCCGCCGGAAGCGAGAAGAATCATAATGGGGAAGGC
modifications: N6-methyladenine in any context (M.EcoGII)

One series concerns the target T1, VchI (Vibrio cholerae).
T1 chain: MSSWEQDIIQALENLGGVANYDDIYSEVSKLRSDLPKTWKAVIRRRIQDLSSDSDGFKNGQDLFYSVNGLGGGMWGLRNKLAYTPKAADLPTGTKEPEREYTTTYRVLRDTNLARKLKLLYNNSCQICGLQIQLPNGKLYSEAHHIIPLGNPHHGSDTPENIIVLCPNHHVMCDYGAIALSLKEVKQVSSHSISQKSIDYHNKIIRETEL
The series can be described thus: EMSA. On the technique in general: Mobility shift assays separate free from complexed probe on a gel.
With B1, the binding result was “binds”.

Take B2: the binding result was “no binding”.

For B3, the binding result is recorded as “binds”.

Turning to B4, the binding result was “no binding”.

For B5, the binding result is recorded as “binds”.

Regarding B6, the binding result is “no binding”.

On to B7, for which the binding result is “no binding”.

As to B8, the binding result is given as “binds”.

As to B9, the binding result is on record as “no binding”.

Regarding B10, the binding result is listed as “binds”.

For the molecule B11, the binding result is given as “binds”.

On to B12, for which the binding result is reported as “no binding”.

Regarding B13, the binding result is reported as “no binding”.

B14: the binding result is on record as “binds”.

In the case of B15, the binding result is on record as “no binding”.

In a further series the target is T1, VchI. The experiment in a line: EMSA. The source holds these as a separate data set.
As to B16, the binding result is recorded as “no binding”.

In the case of B17, the binding result is “no binding”.

As for B18, the binding result is listed as “binds”.

Consider B19, for which the binding result is recorded as “binds”.

For the molecule B20, the binding result is “binds”.

For B21, the binding result is given as “binds”.
